Data taken from patent US20220041740A1 (LIFEARC, published 2022).

T1: recombinant Human IL-17BR-His extracellular domain (human, UniProt Q9NRM6 18-292)
T1 construct: extracellular domain; also called human IL17BR-his tag protein
T1 sequence (looked up): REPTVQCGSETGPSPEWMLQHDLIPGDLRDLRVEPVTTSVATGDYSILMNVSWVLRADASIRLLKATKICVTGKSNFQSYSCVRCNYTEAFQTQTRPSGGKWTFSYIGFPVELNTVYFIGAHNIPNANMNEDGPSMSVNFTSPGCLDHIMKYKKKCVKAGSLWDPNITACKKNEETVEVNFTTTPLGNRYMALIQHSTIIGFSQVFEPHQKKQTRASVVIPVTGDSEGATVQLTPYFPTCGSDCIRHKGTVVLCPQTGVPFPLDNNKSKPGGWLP

T2: human IL17RA-Fc fusion protein (human, UniProt Q96F46 33-320)
T2 construct: Bought; not shown: Fc part of the bought fusion, not described
T2 sequence (looked up): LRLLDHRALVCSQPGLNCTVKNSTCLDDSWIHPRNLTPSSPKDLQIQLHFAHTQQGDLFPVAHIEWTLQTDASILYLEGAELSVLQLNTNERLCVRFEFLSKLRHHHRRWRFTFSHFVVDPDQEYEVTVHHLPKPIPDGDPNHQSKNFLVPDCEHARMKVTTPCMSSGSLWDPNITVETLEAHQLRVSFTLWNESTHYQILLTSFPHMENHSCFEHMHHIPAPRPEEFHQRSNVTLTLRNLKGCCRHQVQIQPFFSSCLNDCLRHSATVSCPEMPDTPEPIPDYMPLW

T3: human IL17RD-his tag (human, UniProt Q8NFM7 17-299, limits assumed)
T3 construct: Bought
T3 sequence (looked up): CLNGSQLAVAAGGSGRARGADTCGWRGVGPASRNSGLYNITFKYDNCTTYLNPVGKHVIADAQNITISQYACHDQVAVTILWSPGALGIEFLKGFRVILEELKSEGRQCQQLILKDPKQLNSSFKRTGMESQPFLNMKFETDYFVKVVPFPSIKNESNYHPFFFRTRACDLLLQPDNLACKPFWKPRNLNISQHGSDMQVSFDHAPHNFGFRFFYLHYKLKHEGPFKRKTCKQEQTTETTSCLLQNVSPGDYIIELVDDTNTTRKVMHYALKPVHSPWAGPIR

T4: human IL17RC-histag protein (human, UniProt Q8NAC3-2 21-467, limits assumed)
T4 construct: Bought
T4 sequence (looked up): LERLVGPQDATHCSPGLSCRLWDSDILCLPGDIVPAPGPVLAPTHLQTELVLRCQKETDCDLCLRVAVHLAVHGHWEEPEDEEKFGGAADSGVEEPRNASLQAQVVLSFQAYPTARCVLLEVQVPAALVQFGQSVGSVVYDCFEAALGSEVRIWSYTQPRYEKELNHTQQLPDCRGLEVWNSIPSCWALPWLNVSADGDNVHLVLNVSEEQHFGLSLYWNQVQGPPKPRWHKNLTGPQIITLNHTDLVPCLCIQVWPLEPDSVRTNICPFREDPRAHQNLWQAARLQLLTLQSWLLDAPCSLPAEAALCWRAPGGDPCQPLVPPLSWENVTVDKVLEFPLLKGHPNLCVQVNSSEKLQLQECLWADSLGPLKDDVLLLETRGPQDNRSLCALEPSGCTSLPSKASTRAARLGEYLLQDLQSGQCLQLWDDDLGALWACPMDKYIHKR

T5: Mouse IL-17BR-(Fc) (mouse, UniProt Q9JIP3 18-286)
T5 construct: extracellular domain; Bought (Sino Biological); not shown: Fc part of the bought fusion (Sino Biological), not described
T5 sequence (looked up): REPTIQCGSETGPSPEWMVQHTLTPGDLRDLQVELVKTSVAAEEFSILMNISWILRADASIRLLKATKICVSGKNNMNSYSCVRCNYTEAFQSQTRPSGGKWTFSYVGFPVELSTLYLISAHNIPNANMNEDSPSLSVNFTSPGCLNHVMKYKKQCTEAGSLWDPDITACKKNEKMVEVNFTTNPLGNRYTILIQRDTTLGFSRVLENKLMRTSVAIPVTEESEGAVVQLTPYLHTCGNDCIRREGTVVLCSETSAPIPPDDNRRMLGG


Tests used:
[1] = molecular target: T1, recombinant Human IL-17BR-His …; assay: Biacore T200, antibody captured by anti-human Fc, Human IL17BR-His 20-1.25 nM, 1:1 model
Procedure: A Human Antibody Capture kit was used to coat an anti-human IgG (Fc) antibody (in 10 mM sodium acetate, pH 5.0 immobilisation buffer) onto flow paths 2-4 a CM5 chip. Flow-path 1 was blocked and used as a blank control. This anti-human IgG coated chip was then used to immobilize the humanized antibody variants. A concentration series from 20-1.25 nM of Human IL17BR-His using a 2-fold dilution series was made using HBS-EP⁺ buffer. Purified antibody samples were diluted to 1 μg/ml in HBS-EP⁺ buffer and each injected onto one coated flow-path on the chip at a flow-rate of 10 μl/min for 2 mins in a Biacore T200 (GE Healthcare). Association time was set to 8 mins and Dissociation to 90 mins at a flow-rate of 30 μl/min Kinetics of binding/dissociation were analysed using a 1:1 model in the BIAevaluation software
8. Kinetics of the Binding of Humanized hD9040, hD9041 and hD9042 Antibodies to IL-17BR To further characterize the binding of the lead humanized candidates hD9040, hD9041 and hD9042 antibodies to Human IL-17BR-His, kinetics experiments were performed using the Biacore T200 instrument.

[2] = molecular target: T1, recombinant Human IL-17BR-His …; assay: binding ELISA on Human IL-17BR-His, absorbance 650 nm against antibody conc. (nM)
[3] = molecular target: T2, human IL17RA-Fc fusion protein; assay: ELISA, plate coated with 2 ug/ml human IL17RA-Fc fusion protein, absorbance 450 nm
Procedure: (§1) ELISA plates were coated overnight at 4° C. with 2 μg/ml human IL17RA-Fc fusion protein(Sino Biological, 10895-H03H), human IL17BR-his tag protein (Sino Biological, 13091-H08H), human IL17RC-histag protein (11747-H08B), human IL17RD-his tag (10507-H08H). The next day, plates were blocked with 1% BSA in PBS, followed by the addition of hD9042. The binding specificity of hD9042 was measured as the absorbance at 450 nm using anti-human IgG F(ab′)2 peroxidase antibody (Jackson ImmunoResearch Inc).

[4] = molecular target: T1, recombinant Human IL-17BR-His …; assay: ELISA, plate coated with 2 ug/ml human IL17BR-his tag protein, detection with anti-human IgG F(ab')2 peroxidase antibody
Procedure: as §1

[5] = molecular target: T3, human IL17RD-his tag; assay: ELISA, plate coated with 2 ug/ml human IL17RD-his tag, absorbance 450 nm
Procedure: as §1

[6] = molecular target: T4, human IL17RC-histag protein; assay: ELISA, plate coated with 2 ug/ml human IL17RC-histag protein, absorbance 450 nm
Procedure: as §1

[7] = molecular target: T1, recombinant Human IL-17BR-His …; assay: binding ELISA on recombinant Human IL-17BR-His extracellular domain, absorbance 450 nm against antibody conc. (nM)
[8] = molecular target: T5, Mouse IL-17BR-(Fc); assay: binding ELISA on recombinant Mouse IL-17BR-(Fc) extracellular domain, absorbance 450 nm against antibody conc. (nM)
[9] = molecular target: Cynomolgus monkey IL-17BR-monoFc (cynomolgus monkey, UniProt A0A2K5TUK1 18-292); assay: binding ELISA on recombinant Cynomolgus monkey IL-17BR-monoFc extracellular domain, absorbance 450 nm against antibody conc. (nM)
Sequence of Cynomolgus monkey IL-17BR-monoFc (A0A2K5TUK1 entry or part of it): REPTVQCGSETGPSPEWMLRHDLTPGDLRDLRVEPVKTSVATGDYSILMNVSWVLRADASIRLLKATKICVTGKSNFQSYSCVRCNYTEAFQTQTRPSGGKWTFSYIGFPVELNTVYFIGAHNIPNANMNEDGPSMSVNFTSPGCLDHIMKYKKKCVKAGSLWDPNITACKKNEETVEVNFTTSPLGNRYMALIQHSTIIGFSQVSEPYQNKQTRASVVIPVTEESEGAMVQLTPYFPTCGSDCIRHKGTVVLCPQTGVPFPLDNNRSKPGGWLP

Row | Binder | Kd [1] | koff [1] | kon [1] | EC50 [2] | binding result [3] | EC50 (read off the curve) [4] | binding result [5] | binding result [6] | EC50 [7] | EC50 [8] | EC50 [9]
1 | humanized antibody hD9040 (antibody, V domains shown, Human IgG1/kappa (pHuG1, pHuK vectors)) VH: EVQLVQSGAEVKKPGASVKVSCKTSGYTFISYWMNWVRQAPGQGLEWMGRIDPYDSEIQYNQKFKDRVTLTRDTSISTAYMELSRLRSDDTAVYYCARSGGFDWFAYWGQGTLVTVSS VL: DIQMTQSPSSLSASVGDRVTITCRASENINSNLAWYQQKPGKAPKLLLYDVTNLADGVPSRFSGSGSGTDYTLTISSLQPEDFATYYCQHFWGPPYTFGGGTKVEIK | 0.02 nM | 6.66e-05 s⁻¹ | 3.42e+06 M⁻¹ s⁻¹ | 0.474 nM | – | – | – | – | – | – | –
2 | chimeric antibody cD9001 (antibody, V domains shown, Mouse D9.2 variable domains on human IgG1/kappa constant regions; also called chimeric D9.2) VH: QVQLQQPGAELVRPGASVKLSCKTSGYTFISYWMNWVKQGPEQGLEWIGRIDPYDSEIQYNQKFKDKAILTVDKSSSAAYMQLISLTSEDSAVYYCARSGGFDWFAYWGQGTLVTVSA VL: DIQMTQSPASLSVSVGETVTITCRASENINSNLAWYQQKKGKSPQLLVYDVTNLADGVPSRFSGSGSGTQYSLKINSLQSEDFGSYYCQHFWRPPYTFGGGTNLEIK | 0.017 nM | 5e-05 s⁻¹ | 2.9e+06 M⁻¹ s⁻¹ | – | – | – | – | – | 0.23 nM | 0.216 nM | 0.291 nM

More lines, now with the values ahead:

Row | Kd [1] | koff [1] | kon [1] | EC50 [2] | binding result [3] | EC50 (read off the curve) [4] | binding result [5] | binding result [6] | EC50 [7] | EC50 [8] | EC50 [9] | Binder
3 | 0.017 nM | 8.23e-05 s⁻¹ | 4.85e+06 M⁻¹ s⁻¹ | 0.414 nM | no binding | ~0.3 nM | no binding | no binding | – | – | – | humanized antibody hD9042 (antibody, V domains shown, Human IgG1/kappa (pHuG1, pHuK vectors); also called lead candidate) VH: QVQLVQSGAEVKKPGASVKVSCKASGYTFISYWMNWVRQAPGQGLEWMGRIDPYDSEIQYNQKFKDRVTMTRDTSISTAYMELSRLRSDDTAVYYCARSGGFDWFAYWGQGTLVTVSS VL: DIQMTQSPSSLSASVGDRVTITCRASENINSNLAWYQQKPGKAPKLLLYDVTNLADGVPSRFSGSGSGTDYTLTISSLQPEDFATYYCQHFWGPPYTFGGGTKVEIK
4 | 0.011 nM | 4.44e-05 s⁻¹ | 3.89e+06 M⁻¹ s⁻¹ | 0.499 nM | – | – | – | – | – | – | – | humanized antibody hD9041 (antibody, V domains shown, Human IgG1/kappa (pHuG1, pHuK vectors)) VH: EVQLVQSGAEVKKPGASVKVSCKTSGYTFISYWMNWVRQAPGQGLEWMGRIDPYDSEIQYAQKFQGRVTLTRDTSISTAYMELSRLRSDDTAVYYCARSGGFDWFAYWGQGTLVTVSS VL: DIQMTQSPSSLSASVGDRVTITCRASENINSNLAWYQQKPGKAPKLLLYDVTNLADGVPSRFSGSGSGTDYTLTISSLQPEDFATYYCQHFWGPPYTFGGGTKVEIK
